B1: library; numbered along this chain (parent)
chain: MRKPRAAVGSGHRKQAASQEGRQKHAKNNSQAKPSACDGLARQPEEVVLQASVSSYHLFRDVAEVTAFRGSLLSWYDQEKRDLPWRRRAEDEMDLDRRAYAVWVSEVMLQQTQVATVINYYTGWMQKWPTLQDLASASLEEVNQLWAGLGYYSRGRRLQEGARKVVEELGGHMPRTAETLQQLLPGVGRYTAGAIASIAFGQATGVVDGNVARVLCRVRAIGADPSSTLVSQQLWGLAQQLVDPARPGDFNQAAMELGATVCTPQRPLCSQCPVESLCRARQRVEQEQLLASGSLSGSPDVEECAPNTGQCHLCLPPSEPWDQTLGVVNFPRKASRKPPREESSATCVLEQPGALGAQILLVQRPNSGLLAGLWEFPSVTWEPSEQLQRKALLQELQRWAGPLPATHLRHLGEVVHTFSHIKLTYQVYGLALEGQTPVTTVPPGARWLTQEEFHTAAVSTAMKKVFRVYQGQQPGTCMGSKRSQVSSPCSRKKPRMGQQVLDNFFRSHISTDAHSLNSAAQ

The variants in the data set derive from B1. As to the kind of experiment: 8OG:A repair function score (normalized; synonymous = 0, nonsense = -1) (normalized log-likelihood score); higher = more repair activity (WT-like). As to conditions: with 8OG:A DNA repair reporter (GFP) in HEK-293 MUTYH KO cells. The method, boiled down:
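With 10 pg/ml doxycycline, MUTYH knockout HEK-293 cells carrying lentiviral MUTYH cDNA NNN codon-scan libraries were co-transfected with mCherry and an 8OG:A GFP repair reporter. Viable mCherry+ cells were sorted into GFP+ (repair) and GFP− bins at 72 h, three replicates per tile, and tile amplicons were sequenced. Per-tile Rosace fitness scores were then normalized into a repair function score anchored on synonymous and nonsense distributions. Medians were fixed at 0 for synonymous and -1 for nonsense, excluding variants under 300 counts per million at the start.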
On to MRKPRAAVGSGHRKQAASQEGRQKHAKNNSQAKPSACDGLARQPEEVVLQASVSSYHLFRDVAEVTAFRGSLLSWYDQEKRDLPWRRRAEDEMDLDRRAYAVWVSEVMLQQTQVATVINYYTGWMQKWPTLQDLASASLEEVNQLWAGLGYYSRGRRLQEGARKVVEELGGHMPRTAETLQQLLPGVGRYTAGAIASIAFGQATGVVDGNVARVLCRVRAIGADPSSTLVSQQLWGLAQQLVDPARPGDFNQAAMELGATVCTPQRPLCSQCPVESLCRPRQRVEQEQLLASGSLSGSPDVEECAPNTGQCHLCLPPSEPWDQTLGVVNFPRKASRKPPREESSATCVLEQPGALGAQILLVQRPNSGLLAGLWEFPSVTWEPSEQLQRKALLQELQRWAGPLPATHLRHLGEVVHTFSHIKLTYQVYGLALEGQTPVTTVPPGARWLTQEEFHTAAVSTAMKKVFRVYQGQQPGTCMGSKRSQVSSPCSRKKPRMGQQVLDNFFRSHISTDAHSLNSAAQ [A280P], for which the “8OG:A repair function score” value was -0.965.

Turning to MRKPRAAVGSGHRKQAASQEGRQKHAKNNSQAKPSACDGLARQPEEVVLQASVSSYHLFRDVAEVTAFRGSLLSWYDQEKRDLPWRRRAEDEMDLDRRAYAVWVSEVMLQQTQVATVINYYTGWMQKWPTLQDLASASLEEVNQLWAGLGYYSRGRRLQEGARKVVEELGGHMPRTAETLQQLLPGVGRYTAGAIASIAFGQATGVVDGNVARVLCRVRAIGADPSSTLVSQQLWGLAQQLVDPARPGDFNQAAMELGATVCTPQRPLCSQCPVESLCRTRQRVEQEQLLASGSLSGSPDVEECAPNTGQCHLCLPPSEPWDQTLGVVNFPRKASRKPPREESSATCVLEQPGALGAQILLVQRPNSGLLAGLWEFPSVTWEPSEQLQRKALLQELQRWAGPLPATHLRHLGEVVHTFSHIKLTYQVYGLALEGQTPVTTVPPGARWLTQEEFHTAAVSTAMKKVFRVYQGQQPGTCMGSKRSQVSSPCSRKKPRMGQQVLDNFFRSHISTDAHSLNSAAQ [A280T], the “8OG:A repair function score” value is -0.13.

On to MRKPRAAVGSGHRKQAASQEGRQKHAKNNSQAKPSACDGLARQPEEVVLQASVSSYHLFRDVAEVTAFRGSLLSWYDQEKRDLPWRRRAEDEMDLDRRAYAVWVSEVMLQQTQVATVINYYTGWMQKWPTLQDLASASLEEVNQLWAGLGYYSRGRRLQEGARKVVEELGGHMPRTAETLQQLLPGVGRYTAGAIASIAFGQATGVVDGNVARVLCRVRAIGADPSSTLVSQQLWGLAQQLVDPARPGDFNQAAMELGATVCTPQRPLCSQCPVESLCRHRQRVEQEQLLASGSLSGSPDVEECAPNTGQCHLCLPPSEPWDQTLGVVNFPRKASRKPPREESSATCVLEQPGALGAQILLVQRPNSGLLAGLWEFPSVTWEPSEQLQRKALLQELQRWAGPLPATHLRHLGEVVHTFSHIKLTYQVYGLALEGQTPVTTVPPGARWLTQEEFHTAAVSTAMKKVFRVYQGQQPGTCMGSKRSQVSSPCSRKKPRMGQQVLDNFFRSHISTDAHSLNSAAQ [A280H], for which the “8OG:A repair function score” value was -0.731.

Take MRKPRAAVGSGHRKQAASQEGRQKHAKNNSQAKPSACDGLARQPEEVVLQASVSSYHLFRDVAEVTAFRGSLLSWYDQEKRDLPWRRRAEDEMDLDRRAYAVWVSEVMLQQTQVATVINYYTGWMQKWPTLQDLASASLEEVNQLWAGLGYYSRGRRLQEGARKVVEELGGHMPRTAETLQQLLPGVGRYTAGAIASIAFGQATGVVDGNVARVLCRVRAIGADPSSTLVSQQLWGLAQQLVDPARPGDFNQAAMELGATVCTPQRPLCSQCPVESLCRRRQRVEQEQLLASGSLSGSPDVEECAPNTGQCHLCLPPSEPWDQTLGVVNFPRKASRKPPREESSATCVLEQPGALGAQILLVQRPNSGLLAGLWEFPSVTWEPSEQLQRKALLQELQRWAGPLPATHLRHLGEVVHTFSHIKLTYQVYGLALEGQTPVTTVPPGARWLTQEEFHTAAVSTAMKKVFRVYQGQQPGTCMGSKRSQVSSPCSRKKPRMGQQVLDNFFRSHISTDAHSLNSAAQ [A280R]: the “8OG:A repair function score” value is -0.814.

Turning to MRKPRAAVGSGHRKQAASQEGRQKHAKNNSQAKPSACDGLARQPEEVVLQASVSSYHLFRDVAEVTAFRGSLLSWYDQEKRDLPWRRRAEDEMDLDRRAYAVWVSEVMLQQTQVATVINYYTGWMQKWPTLQDLASASLEEVNQLWAGLGYYSRGRRLQEGARKVVEELGGHMPRTAETLQQLLPGVGRYTAGAIASIAFGQATGVVDGNVARVLCRVRAIGADPSSTLVSQQLWGLAQQLVDPARPGDFNQAAMELGATVCTPQRPLCSQCPVESLCRNRQRVEQEQLLASGSLSGSPDVEECAPNTGQCHLCLPPSEPWDQTLGVVNFPRKASRKPPREESSATCVLEQPGALGAQILLVQRPNSGLLAGLWEFPSVTWEPSEQLQRKALLQELQRWAGPLPATHLRHLGEVVHTFSHIKLTYQVYGLALEGQTPVTTVPPGARWLTQEEFHTAAVSTAMKKVFRVYQGQQPGTCMGSKRSQVSSPCSRKKPRMGQQVLDNFFRSHISTDAHSLNSAAQ [A280N], the “8OG:A repair function score” value was -0.632.

As to MRKPRAAVGSGHRKQAASQEGRQKHAKNNSQAKPSACDGLARQPEEVVLQASVSSYHLFRDVAEVTAFRGSLLSWYDQEKRDLPWRRRAEDEMDLDRRAYAVWVSEVMLQQTQVATVINYYTGWMQKWPTLQDLASASLEEVNQLWAGLGYYSRGRRLQEGARKVVEELGGHMPRTAETLQQLLPGVGRYTAGAIASIAFGQATGVVDGNVARVLCRVRAIGADPSSTLVSQQLWGLAQQLVDPARPGDFNQAAMELGATVCTPQRPLCSQCPVESLCRIRQRVEQEQLLASGSLSGSPDVEECAPNTGQCHLCLPPSEPWDQTLGVVNFPRKASRKPPREESSATCVLEQPGALGAQILLVQRPNSGLLAGLWEFPSVTWEPSEQLQRKALLQELQRWAGPLPATHLRHLGEVVHTFSHIKLTYQVYGLALEGQTPVTTVPPGARWLTQEEFHTAAVSTAMKKVFRVYQGQQPGTCMGSKRSQVSSPCSRKKPRMGQQVLDNFFRSHISTDAHSLNSAAQ [A280I], the “8OG:A repair function score” value is -0.189.

For the origin of these results see the supplement of paper PMC11908140.
